The labels stand for the following.
B1: HDV Ribozyme (parent)
chain: GGCCGGCAUGGUCCCAGCCUCCUCGCUGGCGCCGGCUGGGCAACAUUCCGAGGGGACCGUCCCCUCGGUAAUGGCGAAUGGGACCCA

The variants in the series derive from B1. The experiment in a line: self-cleavage, relative activity (ratio to wild type); higher = more cleavage; co-transcriptional.
As for G52C U65A, the self-cleavage amounted to 0.939.

In the case of G59U G67U, the self-cleavage stood at 1.17.

In the case of C4U A56G, the self-cleavage worked out at 0.665.

Take G31U A78G: the self-cleavage is 0.0811.

In the case of C19A G25A, the self-cleavage is 0.138.

Take G1A C18G: the self-cleavage came out at 0.

Consider G2U U79C, for which the self-cleavage came to 0.0434.

As for U60C C75U, the self-cleavage was 0.203.

As to U20G G31C, the self-cleavage is 0.

Turning to G31U G55C, the self-cleavage came out at 0.314.

As for G11U C86G, the self-cleavage came to 0.199.

For the variant C26A U65C, the self-cleavage stood at 1.21.

For the variant C7U G17C, the self-cleavage was found to be 0.

Turning to G54C A87G, the self-cleavage was determined as 0.936.

As to C32A C61U, the self-cleavage is 0.201.

In the case of G10U U72A, the self-cleavage was determined as 0.277.

Take G59C G73A: the self-cleavage came to 0.779.

Consider G25A G81A, for which the self-cleavage came to 0.125.

For the variant A45G G80C, the self-cleavage worked out at 0.415.

Consider C15A C49A, for which the self-cleavage stood at 0.974.

G38A G53A: the self-cleavage turned out to be 0.113.

In the case of C33G C41G, the self-cleavage was determined as 0.111.

Take C64G C84G: the self-cleavage is 0.76.

In the case of A56U A87G, the self-cleavage stood at 1.02.

As to G50U G53U, the self-cleavage came out at 0.735.

With C66G U79C, the self-cleavage stood at 0.521.

As for G34U G55U, the self-cleavage was 0.105.

For G28U C63A, the self-cleavage was 0.0978.

As to G35U G81A, the self-cleavage was found to be 0.108.

Turning to G17U G40U, the self-cleavage worked out at 0.381.

As to C57G C66A, the self-cleavage turned out to be 0.923.

With C13U G82A, the self-cleavage stood at 0.997.

Regarding G40C G73A, the self-cleavage stood at 0.223.

With G31U C57A, the self-cleavage worked out at 0.464.

In the case of G39A A42C, the self-cleavage came to 0.

On to C30G G68C, for which the self-cleavage came to 0.0906.

C21G C84G: the self-cleavage amounted to 0.

Turning to C58G C85U, the self-cleavage is 0.956.

Consider G34U G81A, for which the self-cleavage is 0.166.

On to G11A G40U, for which the self-cleavage is 0.458.

Take C21U G68A: the self-cleavage was determined as 0.252.

As for C22U G76U, the self-cleavage turned out to be 0.794.

For U12A U65G, the self-cleavage came to 0.

A45U C57G: the self-cleavage amounted to 0.831.

As for A8U C61A, the self-cleavage turned out to be 0.831.

In the case of G68A, the self-cleavage is 0.952.

On to U23C C36U, for which the self-cleavage was 0.365.

On to C7A C41U, for which the self-cleavage came to 0.489.

Consider A16U G68U, for which the self-cleavage is 1.18.

Take C41U G74C: the self-cleavage was 0.174.

Consider G34U A78G, for which the self-cleavage came out at 0.111.

On to C57U G76A, for which the self-cleavage was 1.1.

With C36G G50U, the self-cleavage amounted to 0.101.

As for C22A U65C, the self-cleavage was 0.446.

With A77G G82C, the self-cleavage turned out to be 0.389.

As to G5C G35A, the self-cleavage is 0.113.

For the variant G39C C64A, the self-cleavage worked out at 0.0369.

Turning to G34C C48A, the self-cleavage is 0.161.

As for G55A C64A, the self-cleavage is 0.95.

Regarding C19G A45G, the self-cleavage stood at 0.106.

As to C4U C41A, the self-cleavage is 0.434.

Consider C14G U69A, for which the self-cleavage was 0.767.

C18G C32G: the self-cleavage worked out at 0.107.

As to C44G C66U, the self-cleavage was 0.694.

Turning to C19U U46G, the self-cleavage was 0.

As for A8C C32U, the self-cleavage was 0.538.

In the case of G1A G68U, the self-cleavage amounted to 0.178.

As for G35A G80U, the self-cleavage came out at 0.151.

Take U9A G34A: the self-cleavage stood at 0.232.

Consider G2A C48A, for which the self-cleavage came to 0.17.

Turning to C44U G53A, the self-cleavage is 0.709.

For the variant C3G C41A, the self-cleavage stood at 0.217.

For U23G U60A, the self-cleavage stood at 0.831.

Turning to G6A G38A, the self-cleavage was 0.0554.

Turning to G5C U27G, the self-cleavage stood at 0.302.

As for C19A C22G, the self-cleavage was found to be 0.155.

Regarding C57A U79A, the self-cleavage came to 0.806.

Regarding A16G G35A, the self-cleavage stood at 0.696.

Consider G28C G80U, for which the self-cleavage was determined as 0.123.

Regarding C4G G54U, the self-cleavage was 0.464.

U27A G29A: the self-cleavage is 0.135.

Take A42G U47C: the self-cleavage came to 0.532.

For G17C G59C, the self-cleavage turned out to be 0.243.

In the case of C61U U69G, the self-cleavage was found to be 0.864.

Take U47G G55U: the self-cleavage came to 1.07.

C32A G35U: the self-cleavage turned out to be 0.157.

Take A8G C63U: the self-cleavage turned out to be 1.26.

With C13G C86U, the self-cleavage was 0.151.

Regarding C13G G39A, the self-cleavage came to 0.0332.

On to C48A A78G, for which the self-cleavage was found to be 0.776.

With U37A C61G, the self-cleavage stood at 0.151.

Turning to U37C C57G, the self-cleavage stood at 1.1.

Take C4A G80U: the self-cleavage was determined as 0.048.

G11A C85G: the self-cleavage was 0.678.

As to G6U G76C, the self-cleavage was 0.676.

Consider G1U G80C, for which the self-cleavage came to 0.272.

As to G35C U47C, the self-cleavage was determined as 0.237.

As to G40A G74U, the self-cleavage was 0.732.

For the variant G11C C48A, the self-cleavage stood at 0.277.

On to G50C C64A, for which the self-cleavage amounted to 0.389.

Consider G5U G81U, for which the self-cleavage is 0.166.

Turning to G25U C61A, the self-cleavage amounted to 0.287.

With G1C U72C, the self-cleavage was 0.111.

As to C63G A70G, the self-cleavage amounted to 0.76.

Consider G52C C58G, for which the self-cleavage was 1.13.

C19U G59U: the self-cleavage came to 0.194.

On to C85U C86G, for which the self-cleavage is 0.946.

For G53C C57U, the self-cleavage was 0.969.

For C15G U47A, the self-cleavage turned out to be 0.723.

In the case of G28C A42C, the self-cleavage is 0.0437.

In the case of A8U C86G, the self-cleavage worked out at 0.554.

As for G34C U79A, the self-cleavage came to 0.104.

With C22U U27C, the self-cleavage is 0.312.

As to G39A G54U, the self-cleavage stood at 0.517.

Consider A71C U79C, for which the self-cleavage was 0.269.

U37A C44A: the self-cleavage came to 0.364.

Take G10U G17C: the self-cleavage worked out at 0.359.

With G52U G76A, the self-cleavage is 0.936.

In the case of G31U A87U, the self-cleavage was determined as 0.521.

For U37C A78U, the self-cleavage stood at 0.161.

For the variant U37C A78G, the self-cleavage worked out at 0.475.

For the variant G5C G52A, the self-cleavage is 0.252.

As to G1A C22G, the self-cleavage amounted to 0.0978.

Consider C22A G67U, for which the self-cleavage worked out at 0.259.

Turning to G31C C36U, the self-cleavage was 0.0978.

For G29A G50C, the self-cleavage amounted to 0.121.

With G59U G76A, the self-cleavage worked out at 0.925.

Regarding A56U C66U, the self-cleavage turned out to be 0.923.

For G31A U69A, the self-cleavage was found to be 0.564.

Turning to C41G G80U, the self-cleavage was determined as 0.124.

As to G25U U27G, the self-cleavage was found to be 0.185.

As for G2A A43G, the self-cleavage amounted to 0.0234.

For the variant G39A C63U, the self-cleavage was 0.503.

For the variant C63U U69C, the self-cleavage was determined as 0.964.

As to G5C G54A, the self-cleavage amounted to 0.0831.

For the variant U12G G55U, the self-cleavage worked out at 0.748.

C24G U47C: the self-cleavage was 0.0462.

As for G35U U47C, the self-cleavage was determined as 0.189.

Consider C14G A51U, for which the self-cleavage is 0.791.

Consider G29C C64G, for which the self-cleavage is 0.095.

U23C G31U: the self-cleavage came to 0.151.

Consider G25A C41U, for which the self-cleavage amounted to 0.155.

As to A71G G80A, the self-cleavage worked out at 0.288.

For C13U C75U, the self-cleavage came to 0.0314.

Regarding G1U C15U, the self-cleavage amounted to 0.269.

With C75A G81U, the self-cleavage came out at 0.155.

In the case of C75U U79C, the self-cleavage worked out at 0.172.

With C41G C85G, the self-cleavage amounted to 0.429.

As for G73A G82C, the self-cleavage was 0.172.

With U9C C85A, the self-cleavage worked out at 0.969.

Take G25C A78G: the self-cleavage came out at 0.

Take G31C C48G: the self-cleavage is 0.227.

For A45G U72C, the self-cleavage was determined as 0.87.

Take C14U A78C: the self-cleavage came out at 0.237.

Consider U27C G35U, for which the self-cleavage was found to be 0.302.

Consider G11U G35U, for which the self-cleavage was 0.115.

On to A42U C57A, for which the self-cleavage came out at 0.575.

With U37A C64A, the self-cleavage amounted to 0.0723.

As for G50A C85G, the self-cleavage was determined as 0.878.

With G34C A45C, the self-cleavage is 0.107.

Turning to C7U U79A, the self-cleavage came out at 0.675.

For G25C G80U, the self-cleavage turned out to be 0.126.

In the case of C7G U27C, the self-cleavage came to 0.151.

For the variant G53U U65A, the self-cleavage was found to be 0.69.

As for A77C C86A, the self-cleavage worked out at 0.407.

For C22U G73C, the self-cleavage came to 0.256.

C32G G73U: the self-cleavage is 0.0692.
